Data as given in publication PMC10261013, “Characterization of p38α autophosphorylation inhibitors that target the non-canonical activation pathway” (Nature Communications, 2023).
Ends that are not written are not given here. * marks the point of attachment. FITC = O=C1OC2(c3ccc(O)cc3Oc3cc(O)ccc32)c2ccc(NC(=S)*)cc21

Assays:
[1] = target: T1, GST-p38α (human p38α with an N-terminal GST-tag, non-phosphorylated) (human, UniProt Q16539 1-360); experiment: fluorescence polarisation; direct binding: FITC-TAB1(386-414) 10 nM with non-phosphorylated GST-p38α 0.17–22 μM, 1 h at RT; 20 mM Tris pH 7.5, 100 mM NaCl, 1 mM DTT, 10 mM MgCl2; conditions: both partners purified
T1 construct: p38α (MAPK14), human; non-phosphorylated; The results text says 'p38α'; the methods and the legend say GST-p38α; also called MAPK14; non-phosphorylated p38α; source: E. coli BL21 DE3 or BL21-DE3-pLysS, purified (Glutathione-Sepharose, dialysis); not shown: GST, N-terminal, kept

[2] = target: T1, GST-p38α (human p38α with an N-terminal …); experiment: thermal shift assay; GST-p38α 1.5 μM with TAB1(386-414) peptide 15 μM, alone or with NC-37 / NC-38; 20 mM TRIS pH 7.5, 100 mM NaCl, 2 mM MgCl2, 2 mM DTT; SYPRO Orange, 25 to 95 °C; conditions: both partners purified

T1 sequence (Q16539 whole entry): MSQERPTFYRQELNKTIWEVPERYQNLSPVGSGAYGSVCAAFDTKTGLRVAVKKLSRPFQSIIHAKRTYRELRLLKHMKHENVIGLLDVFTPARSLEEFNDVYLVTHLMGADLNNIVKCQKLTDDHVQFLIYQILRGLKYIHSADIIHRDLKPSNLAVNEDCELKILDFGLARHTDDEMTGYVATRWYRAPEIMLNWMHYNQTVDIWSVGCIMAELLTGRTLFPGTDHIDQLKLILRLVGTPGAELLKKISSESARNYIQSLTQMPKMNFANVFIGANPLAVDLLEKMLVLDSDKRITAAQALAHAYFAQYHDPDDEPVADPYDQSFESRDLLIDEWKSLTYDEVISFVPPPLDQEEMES

Row | Binder | Kd [1] [nM] | binding result [2]
1 | {FITC}-RVYPVSVPYSSAQSTSKTSVTLSLVMPSQ (source: synthetic peptide, bought: ChinaPeptides) [FITC-TAB1(386-414) peptide] | 989 ± 160 | 
2 | RVYPVSVPYSSAQSTSKTSVTLSLVMPSQ (also called TAB1 peptide; source: synthetic peptide, bought: GenScript) [TAB1(386-414) peptide] |  | binds
